# US20210213165A1
# Biological target: autologous blood coagulum (ABC) prepared from rat full blood
# Test: rhBMP-6 mixed with rat full blood, coagulated for 60 min, serum removed; method of quantification not stated
substance,measurement,value
recombinant human BMP6 (rhBMP6) (from UniProt P22004 375-513) (ligand),percent bound,> 95%
